{"source": "paper PMC3907554", "about": "“Crystal Structure of an (R)-Selective ω-Transaminase from Aspergillus terreus” (PLoS ONE, 2014)", "proteins": {"B1": {"name": "(R)-selective ω-transaminase from Aspergillus terreus (enzyme, UniProt Q0C8G1 1-325, looked up)", "chain": "MASMDKVFAGYAARQAILESTETTNPFAKGIAWVEGELVPLAEARIPLLDQGFMHSDLTYDVPSVWDGRFFRLDDHITRLEASCTKLRLRLPLPRDQVKQILVEMVAKSGIRDAFVELIVTRGLKGVRGTRPEDIVNNLYMFVQPYVWVMEPDMQRVGGSAVVARTVRRVPPGAIDPTVKNLQWGDLVRGMFEAADRGATYPFLTDGDAHLTEGSGFNIVLVKDGVLYTPDRGVLQGVTRKSVINAAEAFGIEVRVEFVPVELAYRCDEIFMCTTAGGIMPITTLDGMPVNGGQIGPITKKIWDGYWAMHYDAAYSFEIDYNERN", "modifications": "pyridoxal 5'-phosphate (PLP) covalently bound to Lys180 (internal aldimine), present in part; the other state is free Lys180 with a PLP-amino acid adduct (ligand code PGD)", "notes": "ω-(R)-transaminase from Aspergillus terreus, gene codon-optimized for E. coli; Cloned through NcoI and XhoI into pET28a(+); also called AT-ωTA; (R)-ω-transaminase; source: E. coli BL21-Gold(DE3), pET28a(+), purified (Ni Sepharose, SEC on Superdex 200); not shown: His-Tag, C-terminal, kept"}}, "biological_target": "the molecule itself", "experiment": "crystal structure; X-ray, 1.63 Å, space group C222(1); crystals from Morpheus condition H02 (10% w/v PEG 8000, 20% v/v ethylene glycol, amino acid mix, 0.1 M MES/imidazole pH 6.5), 18°C; two chains in the asymmetric unit"}
{"protein": "B1", "values": [{"measurement": "stoichiometry N", "result": 2}]}
